The record followed here is PMC6152903 (Cell reports, 2018).

The series “co-IP” concerns the molecule itself. Description: co-IP.
Series [1] concerns the molecule itself. Description: SDS-PAGE without reducing reagent.

B1: FLAG-ZMYND8 (Sf9) (natural protein)
chain: MHPQSLAEEEIKTEQEVVEGMDISTRSKDPGSAERTAQKRKFPSPPHSSNGHSPQDTSTSPIKKKKKPGLLNSNNKEQSELRHGPFYYMKQPLTTDPVDVVPQDGRNDFYCWVCHREGQVLCCELCPRVYHAKCLRLTSEPEGDWFCPECEKITVAECIETQSKAMTMLTIEQLSYLLKFAIQKMKQPGTDAFQKPVPLEQHPDYAEYIFHPMDLCTLEKNAKKKMYGCTEAFLADAKWILHNCIIYNGGNHKLTQIAKVVIKICEHEMNEIEVCPECYLAACQKRDNWFCEPCSNPHPLVWAKLKGFPFWPAKALRDKDGQVDARFFGQHDRAWVPINNCYLMSKEIPFSVKKTKSIFNSAMQEMEVYVENIRRKFGVFNYSPFRTPYTPNSQYQMLLDPTNPSAGTAKIDKQEKVKLNFDMTASPKILMSKPVLSGGTGRRISLSDMPRSPMSTNSSVHTGSDVEQDAEKKATSSHFSASEESMDFLDKSTASPASTKTGQAGSLSGSPKPFSPQLSAPITTKTDKTSTTGSILNLNLDRSKAEMDLKELSESVQQQSTPVPLISPKRQIRSRFQLNLDKTIESCKAQLGINEISEDVYTAVEHSDSEDSEKSDSSDSEYISDDEQKSKNEPEDTEDKEGCQMDKEPSAVKKKPKPTNPVEIKEELKSTSPASEKADPGAVKDKASPEPEKDFSEKAKPSPHPIKDKLKGKDETDSPTVHLGLDSDSESELVIDLGEDHSGREGRKNKKEPKEPSPKQDVVGKTPPSTTVGSHSPPETPVLTRSSAQTSAAGATATTSTSSTVTVTAPAPAATGSPVKKQRPLLPKETAPAVQRVVWNSSSKFQTSSQKWHMQKMQRQQQQQQQQNQQQQPQSSQGTRYQTRQAVKAVQQKEITQSPSTSTITLVTSTQSSPLVTSSGSMSTLVSSVNADLPIATASADVAADIAKYTSKMMDAIKGTMTEIYNDLSKNTTGSTIAEIRRLRIEIEKLQWLHQQELSEMKHNLELTMAEMRQSLEQERDRLIAEVKKQLELEKQQAVDETKKKQWCANCKKEAIFYCCWNTSYCDYPCQQAHWPEHMKSCTQSATAPQQEADAEVNTETLNKSSQGSSSSTQSAPSETASASKEKETSAEKSKESGSTLDLSGSRETPSSILLGSNQGSDHSRSNKSSWSSSDEKRGSTRSDHNTSTSTKSLLPKESRLDTFWD
As a reminder, the stoichiometry N is a count of units in the complex or per binding partner. In the case of B1, the “stoichiometry N” value in “co-IP” was 2.

B2: endogenous ZMYND8 (natural protein)
chain: MDISTRSKDPGSAERTAQKRKFPSPPHSSNGHSPQDTSTSPIKKKKKPGLLNSNNKEQSELRHGPFYYMKQPLTTDPVDVVPQDGRNDFYCWVCHREGQVLCCELCPRVYHAKCLRLTSEPEGDWFCPECEKITVAECIETQSKAMTMLTIEQLSYLLKFAIQKMKQPGTDAFQKPVPLEQHPDYAEYIFHPMDLCTLEKNAKKKMYGCTEAFLADAKWILHNCIIYNGGNHKLTQIAKVVIKICEHEMNEIEVCPECYLAACQKRDNWFCEPCSNPHPLVWAKLKGFPFWPAKALRDKDGQVDARFFGQHDRAWVPINNCYLMSKEIPFSVKKTKSIFNSAMQEMEVYVENIRRKFGVFNYSPFRTPYTPNSQYQMLLDPTNPSAGTAKIDKQEKVKLNFDMTASPKILMSKPVLSGGTGRRISLSDMPRSPMSTNSSVHTGSDVEQDAEKKATSSHFSASEESMDFLDKSTASPASTKTGQAGSLSGSPKPFSPQLSAPITTKTDKTSTTGSILNLNLDRSKAEMDLKELSESVQQQSTPVPLISPKRQIRSRFQLNLDKTIESCKAQLGINEISEDVYTAVEHSDSEDSEKSDSSDSEYISDDEQKSKNEPEDTEDKEGCQMDKEPSAVKKKPKPTNPVEIKEELKSTSPASEKADPGAVKDKASPEPEKDFSEKAKPSPHPIKDKLKGKDETDSPTVHLGLDSDSESELVIDLGEDHSGREGRKNKKEPKEPSPKQDVVGKTPPSTTVGSHSPPETPVLTRSSAQTSAAGATATTSTSSTVTVTAPAPAATGSPVKKQRPLLPKETAPAVQRVVWNSSSKFQTSSQKWHMQKMQRQQQQQQQQNQQQQPQSSQGTRYQTRQAVKAVQQKEITQSPSTSTITLVTSTQSSPLVTSSGSMSTLVSSVNADLPIATASADVAADIAKYTSKMMDAIKGTMTEIYNDLSKNTTGSTIAEIRRLRIEIEKLQWLHQQELSEMKHNLELTMAEMRQSLEQERDRLIAEVKKQLELEKQQAVDETKKKQWCANCKKEAIFYCCWNTSYCDYPCQQAHWPEHMKSCTQSATAPQQEADAEVNTETLNKSSQGSSSSTQSAPSETASASKEKETSAEKSKESGSTLDLSGSRETPSSILLGSNQGSDHSRSNKSSWSSSDEKRGSTRSDHNTSTSTKSLLPKESRLDTFWD
With B2, the “stoichiometry N” value in series [1] came to 2.
